Target: Human TLR4/MD-2 complex (human) (UniProt O00206)
Assay: SPR; Biacore T200; TLR4/MD-2 amine-coupled on CM5 (1100 RU); GST-A-box, GST-B-box (150-5000 nM), A-box or GST injected at 30 μL/min for 60 s, 25 °C, dissociation 1 min; HBS-EP pH 7.4; GST-A-box: association and dissociation fitted separately to a 1:1 model; GST-B-box: steady-state affinity model; apparent KD

Sequence of Human TLR4/MD-2 complex (human) (O00206 24-631, chain 1 of 2): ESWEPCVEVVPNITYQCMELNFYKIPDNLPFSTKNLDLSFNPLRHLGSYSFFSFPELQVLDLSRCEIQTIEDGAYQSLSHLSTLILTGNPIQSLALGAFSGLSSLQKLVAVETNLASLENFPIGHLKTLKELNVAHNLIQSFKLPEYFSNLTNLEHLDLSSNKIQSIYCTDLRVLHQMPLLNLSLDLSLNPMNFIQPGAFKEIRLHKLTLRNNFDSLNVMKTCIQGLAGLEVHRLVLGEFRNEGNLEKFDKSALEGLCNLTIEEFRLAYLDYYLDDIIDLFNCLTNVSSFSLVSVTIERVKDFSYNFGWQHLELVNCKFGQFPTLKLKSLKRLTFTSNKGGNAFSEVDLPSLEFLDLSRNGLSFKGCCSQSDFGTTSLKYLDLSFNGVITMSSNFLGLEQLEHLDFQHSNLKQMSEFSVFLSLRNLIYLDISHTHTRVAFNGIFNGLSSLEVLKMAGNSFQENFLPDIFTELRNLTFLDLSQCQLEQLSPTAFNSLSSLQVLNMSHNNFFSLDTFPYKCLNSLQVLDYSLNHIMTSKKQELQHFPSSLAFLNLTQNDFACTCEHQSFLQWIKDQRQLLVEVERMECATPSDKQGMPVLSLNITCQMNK
Sequence of Human TLR4/MD-2 complex (human) (Q9Y6Y9 19-160, chain 2 of 2, further chain): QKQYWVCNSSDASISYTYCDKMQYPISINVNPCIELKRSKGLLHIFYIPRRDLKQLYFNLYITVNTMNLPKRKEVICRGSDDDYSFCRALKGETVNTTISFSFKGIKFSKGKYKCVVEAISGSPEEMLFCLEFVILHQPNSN

Recombinant GST-B-box (domain or fragment)
Kd: 5.78 µM
